Data on 38 molecules can be found in publication PMC314469, “Protein Interaction Networks by Proteome Peptide Scanning” (PLoS Biology, 2004).

One test has as its target endophilin SH3 (SH3G2_HUMAN), Q99962. As to the kind of experiment: SPOT array.
The molecule PAARPRRPPTTLPP [Q9HCM5 24-37] displayed a normalised SPOT signal, Boehringer light units (BLU); mean over the file's lines of this peptide of 7270.
On the same count and under the same terms, next, NSSHIKRPMNAFMV [Q9UN79 402-415]: 176.
On the same count and under the same terms, next, NVPIPERPPPVPPP [Q96BJ8 361-375]: 84.
Turning to PAPPPVKPPPSPVN [Q8TF74 224-238], the normalised SPOT signal, Boehringer light units (BLU); mean over the file's lines of this peptide was 182.
PAPSLPRPERKSIV [Q99941 295-308] showed a normalised SPOT signal, Boehringer light units (BLU); mean over the file's lines of this peptide of 143.
For PAAPPKKPPRPGAP [Q05397 868-882], the normalised SPOT signal, Boehringer light units (BLU); mean over the file's lines of this peptide was determined as 792.
On to PAALLYRPVRQYVY [Q9NZB2 597-610], for which the normalised SPOT signal, Boehringer light units (BLU); mean over the file's lines of this peptide worked out at 430.
Take NTFHILRPTKAPGF [Q9Y2L0 734-747]: the normalised SPOT signal, Boehringer light units (BLU); mean over the file's lines of this peptide was 256.
PAPRLRRPGRVRPH [Q8WZ58 338-351] registered a normalised SPOT signal, Boehringer light units (BLU); mean over the file's lines of this peptide of 71.1.
Take NSSRPGRPPKRSLG [Q96NX9 174-188]: the normalised SPOT signal, Boehringer light units (BLU); mean over the file's lines of this peptide was found to be 18800.
Turning to PAAPPRRPPQSASS [Q02080 268-282], the normalised SPOT signal, Boehringer light units (BLU); mean over the file's lines of this peptide was determined as 1450.
Same read-out and setting: the figure for NSSSFKRPDGEMNI [O00463 504-517] is 39.5; for NYKNIKRPPGDIMF [Q9Y310 97-110] it is 36.
As to PAQLPRRPAQRPGE [O00456 575-588], the normalised SPOT signal, Boehringer light units (BLU); mean over the file's lines of this peptide was determined as 28.3.
In turn, NSDTPPRPDRLPLD [Q05209 516-529] returned a normalised SPOT signal, Boehringer light units (BLU); mean over the file's lines of this peptide of 0.
In turn, NSAGISRPSRVSDA [P54296 461-474] had a normalised SPOT signal, Boehringer light units (BLU); mean over the file's lines of this peptide of 95.7.
Molecule NSFSPQKPPGHSSR [Q9BX63 202-216] came in with a normalised SPOT signal, Boehringer light units (BLU); mean over the file's lines of this peptide of 505.
Still for that read-out and setting: the figure for PAAPPKRPAVASAR [P27816 749-762] is 2200.
Turning to PAPGLRRPLSPPAA [Q9UK39 24-37], the normalised SPOT signal, Boehringer light units (BLU); mean over the file's lines of this peptide came out at 104.
Take PAGELSRPKKDMSD [P78325 461-474]: the normalised SPOT signal, Boehringer light units (BLU); mean over the file's lines of this peptide worked out at 196.
The molecule ARNQLRRPQYRPQY [P16989 219-232] registered a normalised SPOT signal, Boehringer light units (BLU); mean over the file's lines of this peptide of 27.2.
In turn, PAASPRRPAPRTGP [Q96S08 21-34] had a normalised SPOT signal, Boehringer light units (BLU); mean over the file's lines of this peptide of 48.9.
In turn, PAAAPRRPFSWEDV [O95696 687-700] displayed a normalised SPOT signal, Boehringer light units (BLU); mean over the file's lines of this peptide of 50.4.
Molecule NSRNPRRPPPSSVN [Q96T16 198-211] gave a normalised SPOT signal, Boehringer light units (BLU); mean over the file's lines of this peptide of 464.
On the same count and under the same terms, next, PASAFDRPARTRGQ [Q9H7P7 809-822]: 98.4; ARLPPPRPQRPAET [Q9NQE0 226-239]: 3150.
Consider NTAKPTRPPSESSS [Q9Y2E7 460-474], for which the normalised SPOT signal, Boehringer light units (BLU); mean over the file's lines of this peptide worked out at 141.
PAPRIKRPRLQVVK [Q9BR83 136-149] yielded a normalised SPOT signal, Boehringer light units (BLU); mean over the file's lines of this peptide of 27.2.
Still for that read-out and setting: next, ARLYLRRPAADGAE [Q14181 572-585]: 91.8.
Molecule PALSPTRPPKKPLD [O60593 320-334] showed a normalised SPOT signal, Boehringer light units (BLU); mean over the file's lines of this peptide of 1720.
Take NSMGIKRPAPQPAS [O94830 308-321]: the normalised SPOT signal, Boehringer light units (BLU); mean over the file's lines of this peptide was 165.
For the molecule NSPTLERPGRKRKW [Q9H247 116-129], the normalised SPOT signal, Boehringer light units (BLU); mean over the file's lines of this peptide came out at 81.5.
In turn, NVLVPSRPPRNPYD [BAC03435 232-246] registered a normalised SPOT signal, Boehringer light units (BLU); mean over the file's lines of this peptide of 2920.
The molecule PARPPAKPPEDEPD [Q14184 101-115] came in with a normalised SPOT signal, Boehringer light units (BLU); mean over the file's lines of this peptide of 45.8.
Regarding NSHLLPRPLRHLAS [P47901 342-355], the normalised SPOT signal, Boehringer light units (BLU); mean over the file's lines of this peptide was 2290.
In the case of NVSSFRRPRRSSDK [Q9P2Y5 686-699], the normalised SPOT signal, Boehringer light units (BLU); mean over the file's lines of this peptide came out at 105.
Same read-out and setting: next, PAHPFRRPKLSGRS [Q9ULT6 397-410]: 64.8.
In turn, PAALLRRPGLGRLV [P30049 3-16] returned a normalised SPOT signal, Boehringer light units (BLU); mean over the file's lines of this peptide of 81.5.

The target in another test is T1, amphyphisin SH3 (AMPH_HUMAN), P49418.
T1 chain: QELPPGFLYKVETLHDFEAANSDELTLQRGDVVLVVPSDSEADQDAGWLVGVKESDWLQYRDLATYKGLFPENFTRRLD
As to the kind of experiment: SPOT array.
Consider PAARPRRPPTTLPP [Q9HCM5 24-37], for which the normalised SPOT signal, Boehringer light units (BLU); mean over the file's lines of this peptide worked out at 109.
For NSSHIKRPMNAFMV [Q9UN79 402-415], the normalised SPOT signal, Boehringer light units (BLU); mean over the file's lines of this peptide turned out to be 37.1.
Take NVPIPERPPPVPPP [Q96BJ8 361-375]: the normalised SPOT signal, Boehringer light units (BLU); mean over the file's lines of this peptide amounted to 37.6.
On to PAPPPVKPPPSPVN [Q8TF74 224-238], for which the normalised SPOT signal, Boehringer light units (BLU); mean over the file's lines of this peptide amounted to 43.7.
Consider PAPSLPRPERKSIV [Q99941 295-308], for which the normalised SPOT signal, Boehringer light units (BLU); mean over the file's lines of this peptide stood at 152.
PAAPPKKPPRPGAP [Q05397 868-882]: the normalised SPOT signal, Boehringer light units (BLU); mean over the file's lines of this peptide came out at 2460.
The same measure, in the same setting: the figure for PAALLYRPVRQYVY [Q9NZB2 597-610] is 379; for NTFHILRPTKAPGF [Q9Y2L0 734-747] it is 194.
Take PAPRLRRPGRVRPH [Q8WZ58 338-351]: the normalised SPOT signal, Boehringer light units (BLU); mean over the file's lines of this peptide amounted to 71.5.
For the molecule NSSRPGRPPKRSLG [Q96NX9 174-188], the normalised SPOT signal, Boehringer light units (BLU); mean over the file's lines of this peptide is 4020.
The molecule PAAPPRRPPQSASS [Q02080 268-282] showed a normalised SPOT signal, Boehringer light units (BLU); mean over the file's lines of this peptide of 3320.
NSSSFKRPDGEMNI [O00463 504-517] came in with a normalised SPOT signal, Boehringer light units (BLU); mean over the file's lines of this peptide of 7.2.
The molecule NYKNIKRPPGDIMF [Q9Y310 97-110] displayed a normalised SPOT signal, Boehringer light units (BLU); mean over the file's lines of this peptide of 19.
With PAQLPRRPAQRPGE [O00456 575-588], the normalised SPOT signal, Boehringer light units (BLU); mean over the file's lines of this peptide amounted to 29.4.
Take NSDTPPRPDRLPLD [Q05209 516-529]: the normalised SPOT signal, Boehringer light units (BLU); mean over the file's lines of this peptide was 125.
NSAGISRPSRVSDA [P54296 461-474] registered a normalised SPOT signal, Boehringer light units (BLU); mean over the file's lines of this peptide of 362.
The molecule NSFSPQKPPGHSSR [Q9BX63 202-216] had a normalised SPOT signal, Boehringer light units (BLU); mean over the file's lines of this peptide of 43.8.
Same read-out and setting: the figure for PAAPPKRPAVASAR [P27816 749-762] is 64.4; for PAPGLRRPLSPPAA [Q9UK39 24-37] it is 57.1.
In turn, PAGELSRPKKDMSD [P78325 461-474] returned a normalised SPOT signal, Boehringer light units (BLU); mean over the file's lines of this peptide of 105.
On the same count and under the same terms, next, ARNQLRRPQYRPQY [P16989 219-232]: 13; PAASPRRPAPRTGP [Q96S08 21-34]: 21.1; PAAAPRRPFSWEDV [O95696 687-700]: 28.
Molecule NSRNPRRPPPSSVN [Q96T16 198-211] came in with a normalised SPOT signal, Boehringer light units (BLU); mean over the file's lines of this peptide of 78.8.
With PASAFDRPARTRGQ [Q9H7P7 809-822], the normalised SPOT signal, Boehringer light units (BLU); mean over the file's lines of this peptide is 2010.
On to ARLPPPRPQRPAET [Q9NQE0 226-239], for which the normalised SPOT signal, Boehringer light units (BLU); mean over the file's lines of this peptide was 678.
The same measure, in the same setting: the figure for NTAKPTRPPSESSS [Q9Y2E7 460-474] is 48.6.
In the case of PAPRIKRPRLQVVK [Q9BR83 136-149], the normalised SPOT signal, Boehringer light units (BLU); mean over the file's lines of this peptide was 70.5.
ARLYLRRPAADGAE [Q14181 572-585] gave a normalised SPOT signal, Boehringer light units (BLU); mean over the file's lines of this peptide of 43.
On the same count and under the same terms, the figure for PALSPTRPPKKPLD [O60593 320-334] is 599.
The molecule NSMGIKRPAPQPAS [O94830 308-321] gave a normalised SPOT signal, Boehringer light units (BLU); mean over the file's lines of this peptide of 24.3.
As for NSPTLERPGRKRKW [Q9H247 116-129], the normalised SPOT signal, Boehringer light units (BLU); mean over the file's lines of this peptide stood at 497.
The same measure, in the same setting: next, NVLVPSRPPRNPYD [BAC03435 232-246]: 4650; PARPPAKPPEDEPD [Q14184 101-115]: 56.7; NSHLLPRPLRHLAS [P47901 342-355]: 1620.
NVSSFRRPRRSSDK [Q9P2Y5 686-699]: the normalised SPOT signal, Boehringer light units (BLU); mean over the file's lines of this peptide came to 2350.
On the same count and under the same terms, next, PAHPFRRPKLSGRS [Q9ULT6 397-410]: 49.5.
PAALLRRPGLGRLV [P30049 3-16] showed a normalised SPOT signal, Boehringer light units (BLU); mean over the file's lines of this peptide of 4.9.
